A word on the Kd: it is the constant that tells how readily two partners part at equilibrium. High values mean weaker binding, low ones tighter binding.

For 2 molecules, Kd results are on record in PMC8733265, “Microscale thermophoresis suggests a new model of regulation of cardiac myosin function via interaction with cardiac myosin-binding protein C” (The Journal of Biological Chemistry, 2021).

Experiment in all cases: MST; Monolith NT.115; 100 nmol/l Alexa647-labelled protein fixed, partner titrated; 20 mmol/l Mops pH 7, 1 mmol/l MgCl2, 50 mmol/l KCl, 1 mmol/l DTT, 0.05% Tween-20
Holding throughout (conditions): both partners purified

One assay deals with T1, C0C1 fragment of cMyBP-C (UniProt Q14896 1-258).
T1 construct: also called C0-P/A-C1; source: E. coli BL21(DE3)-RIPL, purified (HisTrapFF, TEV, ion exchange); not shown: His tag, N-terminal, cleaved

The next assay addresses T2, domain C0 of cMyBP-C (UniProt Q14896 1-101).
T2 construct: source: E. coli BL21(DE3)-RIPL, purified (HisTrapFF, TEV, ion exchange); not shown: His tag, N-terminal, cleaved

Assay [1] has as its target T3, C0C2, cMyBP-C spanning domains C0 to C2 (UniProt Q14896 1-452).
T3 construct: also called N-terminal domains (NTD) of cMyBP-C; C0-P/A-C1-m-C2; source: E. coli BL21(DE3)-RIPL, purified (HisTrapFF, TEV, ion exchange); not shown: His tag, N-terminal, cleaved

The next assay deals with T4, domain C1 of cMyBP-C (UniProt Q14896 151-258).
T4 construct: source: E. coli BL21(DE3)-RIPL, purified (HisTrapFF, TEV, ion exchange); not shown: His tag, N-terminal, cleaved

In another assay the target is T5, domain C2 of cMyBP-C (UniProt Q14896 362-452).
T5 construct: source: E. coli BL21(DE3)-RIPL, purified (HisTrapFF, TEV, ion exchange); not shown: His tag, N-terminal, cleaved

The next assay concerns the target T6, C2C4 segment of cMyBP-C (UniProt Q14896 362-633).
T6 construct: also called C2–C3–C4; C2C4 module; source: E. coli BL21(DE3)-RIPL, purified (HisTrapFF, TEV, ion exchange); not shown: His tag, N-terminal, cleaved

A further assay concerns the target T7, C5C7 segment of cMyBP-C (UniProt Q14896 645-967).
T7 construct: also called C5–C6–C7; wildtype C5C7; source: E. coli BL21(DE3)-RIPL, purified (HisTrapFF, TEV, ion exchange); not shown: His tag, N-terminal, cleaved
T7 sequence (looked up): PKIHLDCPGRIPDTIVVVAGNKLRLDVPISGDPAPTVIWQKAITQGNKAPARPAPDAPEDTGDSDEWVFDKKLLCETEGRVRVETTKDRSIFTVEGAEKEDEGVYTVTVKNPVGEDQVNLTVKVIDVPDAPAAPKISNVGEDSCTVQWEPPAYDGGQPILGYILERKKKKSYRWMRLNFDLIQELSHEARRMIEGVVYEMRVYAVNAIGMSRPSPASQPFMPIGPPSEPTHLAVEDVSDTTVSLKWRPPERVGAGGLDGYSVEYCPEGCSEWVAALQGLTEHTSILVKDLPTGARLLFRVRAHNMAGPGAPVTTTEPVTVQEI

In assay [2] the target is T8, C0C2-3P, tris-phosphorylated C0C2 (UniProt Q14896 1-452, tris-phosphorylated by PKA (m-motif; sites not given)).
T8 construct: not shown: His tag, N-terminal, cleaved
T8 sequence (Q14896 1-452): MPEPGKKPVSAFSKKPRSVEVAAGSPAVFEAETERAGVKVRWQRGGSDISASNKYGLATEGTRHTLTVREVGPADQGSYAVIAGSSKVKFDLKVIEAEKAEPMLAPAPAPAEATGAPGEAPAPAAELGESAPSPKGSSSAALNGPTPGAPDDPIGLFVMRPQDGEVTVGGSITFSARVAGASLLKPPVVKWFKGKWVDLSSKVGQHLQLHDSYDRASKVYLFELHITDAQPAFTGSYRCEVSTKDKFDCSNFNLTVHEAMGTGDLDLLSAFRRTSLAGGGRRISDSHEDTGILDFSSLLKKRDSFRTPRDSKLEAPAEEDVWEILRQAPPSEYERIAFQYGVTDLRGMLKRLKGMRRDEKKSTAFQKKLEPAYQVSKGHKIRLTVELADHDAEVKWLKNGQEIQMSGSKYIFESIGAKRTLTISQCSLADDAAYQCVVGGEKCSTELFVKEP

T3 sequence (Q14896 1-452): as above
T6 sequence (Q14896 362-633): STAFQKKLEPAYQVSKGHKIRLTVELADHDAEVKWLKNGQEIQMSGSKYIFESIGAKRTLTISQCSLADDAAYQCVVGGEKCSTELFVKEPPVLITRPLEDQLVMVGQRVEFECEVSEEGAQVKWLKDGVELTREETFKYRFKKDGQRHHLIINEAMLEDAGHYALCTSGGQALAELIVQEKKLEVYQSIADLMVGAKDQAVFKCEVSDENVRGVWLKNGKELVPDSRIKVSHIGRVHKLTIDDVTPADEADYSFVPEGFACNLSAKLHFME
T2 sequence (Q14896 1-101): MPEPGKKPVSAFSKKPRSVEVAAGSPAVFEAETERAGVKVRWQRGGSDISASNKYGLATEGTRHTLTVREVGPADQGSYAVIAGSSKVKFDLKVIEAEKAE
T5 sequence (Q14896 362-452): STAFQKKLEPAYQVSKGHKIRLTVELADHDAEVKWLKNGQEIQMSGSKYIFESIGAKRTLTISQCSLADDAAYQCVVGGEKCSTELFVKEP
T4 sequence (Q14896 151-258): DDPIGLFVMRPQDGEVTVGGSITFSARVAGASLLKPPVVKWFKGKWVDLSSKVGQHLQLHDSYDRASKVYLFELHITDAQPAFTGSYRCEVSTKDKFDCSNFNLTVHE
T1 sequence (Q14896 1-258): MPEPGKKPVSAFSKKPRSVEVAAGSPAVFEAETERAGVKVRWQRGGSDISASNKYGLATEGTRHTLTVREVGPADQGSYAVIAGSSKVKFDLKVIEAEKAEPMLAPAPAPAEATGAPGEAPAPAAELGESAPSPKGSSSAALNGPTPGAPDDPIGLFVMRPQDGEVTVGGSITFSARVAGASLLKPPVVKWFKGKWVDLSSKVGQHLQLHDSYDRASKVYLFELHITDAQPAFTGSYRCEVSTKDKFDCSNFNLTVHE

B1: miniHMM, recombinant fragment of human cardiac myosin containing the myosin S2Δ tail domain bound to two RLCs (complex)
chain 1: RDSLLVIQWNIRAFMGVKNWPWMKLYFKIKPLLKSAEREKEMASMKEEFTRLKEALEKSEARRKELEEKMVSLLQEKNDLQLQVQAEQDNLADAEERCDQLIKNKIQLEAKVKEMNERLEDEEEMNAELTAKKRKLEDECSELKRDIDDLELTLAK
chain 2: APKKAKKRAGGANSNVFSMFEQTQIQEFKEAFTIMDQNRDGFIDKNDLRDTFAALGRVNVKNEEIDEMIKEAPGPINFTVFLTMFGEKLKGADPEETILNAFKVFDPEGKGVLKADYVREMLTTQAERFSKEEVDQMFAAFPPDVTGNLDYKNLVHIITHGEEKD
modifications: Limits not printed. C-terminus from S2Δ as the first 126 residues of S2 (838-963 by convention). N-terminus taken at the start of the RLC-binding heavy-chain helix (about 808). RLC initiator Met …
Regarding B1, the Kd with C0C1 fragment of cMyBP-C came to 10.3 µM; in the assay with domain C0 of cMyBP-C, 335 µM; in assay [1], 3.4 µM; in the assay with domain C1 of cMyBP-C, 17 µM; with domain C2 of cMyBP-C, 502 µM; with C2C4 segment of cMyBP-C, 4.7 µM. In addition, in the assay with C5C7 segment of cMyBP-C, the Kd amounted to 3.2 µM.

B2: phospho-miniHMM (miniHMM phosphorylated in vitro by cMLCK) (complex)
chain 1: B1 chain 1
chain 2: B1 chain 2
modifications: phosphorylated by cMLCK to about 1 mol Pi/mol RLC (site not given)
Take B2: the equilibrium dissociation constant (Kd) was found to be 2.7 µM in assay [1] and 5 µM in assay [2].
